Measurements taken from patent US20230374148A1, “BINDING MOLECULES THAT MULTIMERISE CD45” (UCB BIOPHARMA SRL, priority 2020, published 2023).

How the values were obtained:
[1] = tested on: CD34+ stem cells in PBMCs; experiment: Apoptosis of peripheral blood haematopoietic stem cells in PBMCs; format: cell-based, human; conditions: 24 hrs, 200-0.00632 nM
Experimental: Human whole blood (K2EDTA tubes) was received from one donor (#PR20T386505, from Cambridge Bioscience, UK). PBMCs were isolated from whole blood using pre-filled LeucoSep tubes (Greiner). Whole blood was layered on to the LeucoSep filter and tubes spun (800 g, 15 min, slow acceleration and deceleration, at RT). The buffy coat was extracted and cells washed twice in sterile PBS. PBMC were resuspended in 50 ml complete media (RPMI 1640+2 mM GlutaMAX+1% Pen/Strep, all previously supplied by Invitrogen, +10% Fetal Bovine Serum (FBS), Sigma Aldrich). Cells were counted using a ChemoMetec NucleoCounter NC-3000. 1×10^6 cells per well in 80 μl were then added to each well of a Corning Costar 96-well, cell culture treated, U-shaped-bottom microplate (cat no. 07-200-95).
In a Greiner 96-well non-binding microplate, Fab-X and Fab-Y combination 6294-X/4133-Y, was added to complete media to give a Fab-KD-Fab concentration of 1000 nM. Similarly, 1000 nM stocks of 4133-6294 BYbe and NegCtrl BYbe were prepared in complete media. The microplate was incubated for 1 hr at 37° C., 5% CO2. Following the incubation, Fab-KD-Fab and BYbe reagents were then serially diluted in complete media in a half log dilution series, 7 times to produce an 8-point dose curve. […]
Cells were analysed using the Bio-Rad ZE5 Cell Analyzer. […]

CD45 ECD = target: T1, CD45 ECD (Homo sapiens, UniProt P08575); experiment: Sedimentation velocity, analytical ultracentrifuge; format: binding; conditions: for Experimental S value: molar 1:1 mixture
T1 construct: extracellular domain of CD45 (UniProtKB—P08575, residue positions 225-573); TEV cleavage site (C); 10-His tag (C); made in house; host or cells: HEK293
T1 sequence (P08575 225-573): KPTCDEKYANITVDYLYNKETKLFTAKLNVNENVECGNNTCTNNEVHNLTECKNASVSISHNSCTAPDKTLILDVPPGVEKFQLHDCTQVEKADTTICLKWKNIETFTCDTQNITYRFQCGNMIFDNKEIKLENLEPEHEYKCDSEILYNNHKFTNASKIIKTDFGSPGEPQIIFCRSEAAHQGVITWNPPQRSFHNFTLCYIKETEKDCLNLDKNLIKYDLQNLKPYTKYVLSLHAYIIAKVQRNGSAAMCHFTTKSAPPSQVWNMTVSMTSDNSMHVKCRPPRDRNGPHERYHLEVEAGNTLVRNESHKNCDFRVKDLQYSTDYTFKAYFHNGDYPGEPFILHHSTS
Experimental: CD45 ECD and 4133-6294 BYbe were mixed in a molar ratio of 1:1 and incubated for 1 hour at room temperature. The molar ratio was determined using the predicted mass of 4133-6294 BYbe at 73.5 kDa and the mass of CD45 ECD as determined by mass photometry at 62 kDa.
The CD45 ECD-4133-6294 BYbe mixture, CD45 ECD only or 4133-6294 BYbe only were loaded into cells with 2-channel charcoal-epon centrepieces with 12 mm optical path length and glass quartz glass windows. The corresponding buffer was loaded into the reference channel of each cell (the instrument functions like a dual beam spectrometer). Those loaded cells were then placed into an AN-60Ti analytical rotor, loaded into a Beckman-coulter Optima analytical ultracentrifuge and brought to 20° C. The rotor was then brought to 3,000 rpm and the samples were scanned at 280 nm to confirm proper cell loading and appropriate adjustment of the laser, via the laser delay setting. The rotor was then brought to the final run speed of 50,000 rpm. Scans were recorded every 20 seconds for 8 hours. Radial scans ranged from 5.75 to 7.25 cm.
The data were analysed using the c(s) method developed by peter Shuck at the N.I.H and implemented in his analysis program SEDFIT version 14.6e. In this approach many raw data scans directly fitted (36,000 data points for each sample in this case) to derive the distribution of sedimentation coefficients, while modelling the influence of diffusion on the data in order to enhance the resolution. The method works by assigning a diffusion coefficient to each value of sedimentation coefficient based on an assumption that all species have the same overall hydrodynamic shape (with shape defined by the frictional coefficient relative to that for a sphere, f/f0). The f/f0 values were varied to find the best overall fit of the data for each sample. A maximum entropy regularization probability of 0.95 was used and time invariant noise was removed. The analysis was performed using the standard solvent model.

Experimental S value (CD45 ECD; CD45 1:1 BYbe complex): 6.9 S | Percentage of area under the curve (CD45 ECD; CD45 1:1 BYbe in molar 1:1 mixture): 11.99% | Experimental S value (CD45 ECD; CD45 2:1 BYbe complex): 7.15 S | Experimental S value (CD45 ECD; CD45 2:2 BYbe complex): 8.78 S | Percentage of area under the curve (CD45 ECD; CD45 2:2 BYbe in molar 1:1 mixture): 37.7% | Experimental S value (CD45 ECD; CD45 3:3 BYbe complex): 10.04 S | Percentage of area under the curve (CD45 ECD; CD45 3:3 BYbe in molar 1:1 mixture): 35.7% | Experimental S value (CD45 ECD; CD45 4:3 BYbe complex): 11.12 S | Experimental S value (CD45 ECD; CD45 4:4 BYbe complex): 13.3 S | Percentage of area under the curve (CD45 ECD; CD45 4:4 BYbe in molar 1:1 mixture): 3.46% | Percentage of area under the curve (CD45 ECD; CD45 (uncomplexed) in molar 1:1 mixture of CD45 ECD and BYbe): 9.21%
B1: 4133-6294 BYbe: anti-CD45 BYbe (Fab-scFv): 4133 Fab HC-G4S linker-6294 scFv heavy chain paired with 4133 light chain (antibody)
heavy: QEQLVESGGGLVQPEGSLTLTCTASGFSFSGNYYMCWVRQAPGKGLEWIGCLYTGSSGSTYYASWAKGRFTISKTSSTTVTLQMTSLTAADTATYFCARDLGYEIDGYGGLWGQGTLVTVSSGQPKAPSVFPLAPCCGDTPSSTVTLGCLVKGYLPEPVTVTWNSGTLTNGVRTFPSVRQSSGLYSLSSVVSVTSSSQPVTCNVAHPATNTKVDKTVAPSTCSKPGGGGSGGGGSEVQLVESGAELARPGASVKMSCKASGYTFTSYTMHWVKQRPGQCLEWIGYINPSSGYTEYNQKFKDKTTLTADKSSSTAYLQLSSLTSEDSAVYYCARVGDGFYPSWLAYWGQGTLVTVSSGGGGSGGGGSGGGGSGGGGSDIQMTQSPKFLLVSAGDRVTITCKASQSVRNDVAWYQQKPGQSPKLLIFYASKRYTGVPDRFTGSGYGTDFTFTISTVQAEDLAVYFCQQDYSSPTTFGCGTKLEIK
light: AQVLTQTPSPVSAVVGGTVSISCQASQSVYNNNNLSWYQQKPGQPPKLLIYDASKLASGVPSRFKGSGSGTQFTLTISGVQCDDAATYYCLGGYYSSGWYFAFGGGTKVVVKRTPVAPTVLIFPPAADQVATGTVTIVCVANKYFPDVTVTWEVDGTTQTTGIENSKTPQNSADCTYNLSSTLTLTSTQYNSHKEYTCKVTQGTTSVVQSFNRGDC
reductions in CD34+ stem cells [1]: 53% | reductions in total lymphocytes [1]: 98%
